Data taken from patent US20180244725.

Target: T1, R5 peptide
T1 chain: SSKKSGSYSGSKGSKRRIL

B1: LplA (protein)
chain: STLRLLISDSYDPWFNLAVEECIFRQMPATQRVLFLWRNADTVVIGRAQNPWKECNTRRMEEDNVRLARRSSGGGAVFHDLGNTCFTFMAGKPEYDKTISTSIVLNALNALGVSAEASGRNDLVVKTVEGDRKVSGSAYRETKDRGFHHGTLLLNADLSRLANYLNPDKKKLAAKGITSVRSRVTNLTELLPGITHEQVCEAITEAFFAHYGERVEAEIISPNKTPDLPNFAETFARQSSWEWNFGQAPAFSHLLDERFTWGGVELHFDVEKGHITRAQVFTDSLNPAPLEALAGRLQGCLYRADMLQQECEALLVDFPEQEKELRELSAWMAGAVR
In the case of B1, the “enzymatic modification of R5 (Lipidation)” value is reported as “resulted in no modifications”.

B2: BRSK2 (protein)
chain: MWPPDPDPDPDPEPAGGSRPGPAVPGLRALLPARAFLCSLKGRLLLAESGLSFITFICYVASSASAFLTAPLLEFLLALYFLFADAMQLNDKWQGLCWPMMDFLRCVTAALIYFAISITAIAKYSDGASKAAGVFGFFATIVFATDFYLIFNDVAKFLKQGDSADETTAHKTEEENSDSDSD
B2 was tested, and the “enzymatic modification of R5 (Phosphorylation)” value was “resulted in no modifications”.

B3: deoxyhypusine synthase (DHPS) (protein)
chain: MEGSLEREAPAGALAAVLKHSSTLPPESTQVRGYDFNRGVNYRALLEAFGTTGFQATNFGRAVQQVNAMIEKKLEPLSQDEDQHADLTQSRRPLTSCTIFLGYTSNLISSGIRETIRYLVQHNMVDVLVTTAGGVEEDLIKCLAPTYLGEFSLRGKELRENGINRIGNLLVPNENYCKFEDWLMPILDQMVMEQNTEGVKWTPSKMIARLGKEINNPESVYYWAQKNHIPVFSPALTDGSLGDMIFFHSYKNPGLVLDIVEDLRLINTQAIFAKCTGMIILGGGVVKHHIANANLMRNGADYAVYINTAQEFDGSDSGARPDEAVSWGKIRVDAQPVKVYADASLVFPLLVAETFAQKMDAFMHEKNED
With B3 the “hypusination of R5 (LC-MS time course)” value was “A time course showing the conversion of two lysine to hypusine residues was determined by LC-MS”.

B4: OGT (protein)
chain: ASSVGNVADSTEPTKRMLSFQGLAELAHREYQAGDFEAAERHCMQLWRQEPDNTGVLLLLSSIHFQCRRLDRSAHFSTLAIKQNPLLAEAYSNLGNVYKERGQLQEAIEHYRHALRLKPDFIDGYINLAAALVAAGDMEGAVQAYVSALQYNPDLYCVRSDLGNLLKALGRLEEAKACYLKAIETQPNFAVAWSNLGCVFNAQGEIWLAIHHFEKAVTLDPNFLDAYINLGNVLKEARIFDRAVAAYLRALSLSPNHAVVHGNLACVYYEQGLIDLAIDTYRRAIELQPHFPDAYCNLANALKEKGSVAEAEDCYNTALRLCPTHADSLNNLANIKREQGNIEEAVRLYRKALEVFPEFAAAHSNLASVLQQQGKLQEALMHYKEAIRISPTFADAYSNMGNTLKEMQDVQGALQCYTRAIQINPAFADAHSNLASIHKDSGNIPEAIASYRTALKLKPDFPDAYCNLAHCLQIVCDWTDYDERMKKLVSIVADQLEKNRLPSVHPHHSMLYPLSHGFRKAIAERHGNLCLDKINVLHKPPYEHPKDLKLSDGRLRVGYVSSDFGNHPTSHLMQSIPGMHNPDKFEVFCYALSPDDGTNFRVKVMAEANHFIDLSQIPCNGKAADRIHQDGIHILVNMNGYTKGARNELFALRPAPIQAMWLGYPGTSGALFMDYIITDQETSPAEVAEQYSEKLAYMPHTFFIGDHANMFPHLKKKAVIDFKSNGHIYDNRIVLNGIDLKAFLDSLPDVKIVKMKCPDGGDNADSSNTALNMPVIPMNTIAEAVIEMINRGQIQITINGFSISNGLATTQINNKAATGEEVPRTIIVTTRSQYGLPEDAIVYCNFNQLYKIDPSTLQMWANILKRVPNSVLWLLRFPAVGEPNIQQYAQNMGLPQNRIIFSPVAPKEEHVRRGQLADVCLDTPLCNGHTTGMDVLWAGTPMVTMPGETLASRVAASQLTCLGCLELIAKNRQEYEDIAVKLGTDLEYLKKVRGKVWKQRISSPLFNTKQYTMELERLYLQMWEHYAAGNKPDHMIKPVEVTESA
For B4, the “enzymatic modification of R5 (Glycosylation)” value was “resulted in no modifications”.

B5: deoxyhypusine hydroxulase (DOHH) (protein)
chain: MVTEQEVDAIGQTLVDPKQPLQARFRALFTLRGLGGPGAIAWISQAFDDDSALLKHELAYCLGQMQDARAIPMLVDVLQDTRQEPMVRHEAGEALGAIGDPEVLEILKQYSSDPVIEVAETCQLAVRRLEWLQQHGGEPAAGPYLSVDPAPPAEERDVGRLREALLDESRPLFERYRAMFALRNAGGEEAALALAEGLHCGSALFRHEVGYVLGQLQHEAAVPQLAAALARCTENPMVRHECAEALGAIARPACLAALQAHADDPERVVRESCEVALDMYEHETGRAFQYADGLEQLRGAPS
B5 was tested, and the “hypusination of R5 (LC-MS time course)” value was “A time course showing the conversion of two lysine to hypusine residues was determined by LC-MS”.

B6: POMT1 (protein)
chain: MWGFLKRPVVVTADINLSLVALTGMGLLSRLWRLTYPRAVVFDEVYYGQYISFYMKQIFFLDDSGPPFGHMVLALGGYLGGFDGNFLWNRIGAEYSSNVPVWSLRLLPALAGALSVPMAYQIVLELHFSHCAAMGAALLMLIENALITQSRLMLLESVLIFFNLLAVLSYLKFFNCQKHSPFSLSWWFWLTLTGVACSCAVGIKYMGVFTYVLVLGVAAVHAWHLLGDQTLSNVGADVQCCMRPACMGQMQMSQGVCVFCHLLARAVALLVIPVVLYLLFFYVHLILVFRSGPHDQIMSSAFQASLEGGLARITQGQPLEVAFGSQVTLRNVFGKPVPCWLHSHQDTYPMIYENGRGSSHQQQVTCYPFKDVNNWWIVKDPRRHQLVVSSPPRPVRHGDMVQLVHGMTTRSLNTHDVAAPLSPHSQEVSCYIDYNISMPAQNLWRLEIVNRGSDTDVWKTILSEVRFVHVNTSAVLKLSGAHLPDWGYRQLEIVGEKLSRGYHGSTVWNVEEHRYGASQEQRERERELHSPAQVDVSRNLSFMARFSELQWRMLALRSDDSEHKYSSSPLEWVTLDTNIAYWLHPRTSAQIHLLGNIVIWVSGSLALAIYALLSLWYLLRRRRNVHDLPQDAWLRWVLAGALCAGGWAVNYLPFFLMEKTLFLYHYLPALTFQILLLPVVLQHISDHLCRSQLQRSIFSALVVAWYSSACHVSNTLRPLTYGDKSLSPHELKALRWKDSWDILIRKH
B6 was tested, and the “enzymatic modification of R5 (Glycosylation)” value was “resulted in no modifications”.

B7: vopS (protein)
chain: GKEYTINAATQEFTRANPTSGAVARFFEATGKLFREGSTQSVAKAITKAVFDNEQGQAQRLQTSSSVEHGQMLFKDANLKTPSDVLNAFAKLDSKMVKSHAAELSQLAERAMTEVMLETDSGKNLKALIGDDAVKSLAVRVVKDYGGGVAAAQKNPEVRINQMQAVFDMEVMHLKAAQRHIEGLASTDLNQGVYAEGLPEDAFNKAGVTNNVERAAAWIINASNSKGNDAENITSLLKEYATNGKDLLNMDNLKELHARLVPNVERDYRGPNISGGTLPSSIGGEGMLKQHIEGFLKENPVADKDLGKHLFAGVIGYHGFTDGNGRMGRMLYAIAELRNDSFNPLAMNAENSLHGIK
For B7, the “enzymatic modification of R5 (Adenylylation)” value was “resulted in no modifications”.

B8: GALNT1 (protein)
chain: GLPAGDVLEPVQKPHEGPGEMGKPVVIPKEDQEKMKEMFKINQFNLMASEMIALNRSLPDVRLEGCKTKVYPDNLPTTSVVIVFHNEAWSTLLRTVHSVINRSPRHMIEEIVLVDDASERDFLKRPLESYVKKLKVPVHVIRMEQRSGLIRARLKGAAVSKGQVITFLDAHCECTVGWLEPLLARIKHDRRTVVCPIIDVISDDTFEYMAGSDMTYGGFNWKLNFRWYPVPQREMDRRKGDRTLPVRTPTMAGGLFSIDRDYFQEIGTYDAGMDIWGGENLEISFRIWQCGGTLEIVTCSHVGHVFRKATPYTFPGGTGQIINKNNRRLAEVWMDEFKNFFYIISPGVTKVDYGDISSRVGLRHKLQCKPFSWYLENIYPDSQIPRHYFSLGEIRNVETNQCLDNMARKENEKVGIFNCHGMGGNQVFSYTANKEIRTDDLCLDVSKLNGPVTMLKCHHLKGNQLWEYDPVKLTLQHVNSNQCLDKATEEDSQVPSIRDCNGSRSQQWLLRNVTLPEIF
With B8 the “enzymatic modification of R5 (Glycosylation)” value was “resulted in no modifications”.
